Results on one protein are retold here after article PMC5404824, “Engineering Nucleotide Specificity of Succinyl-CoA Synthetase in Blastocystis: The Emerging Role of Gatekeeper Residues” (Biochemistry, 2016).

Substrate in the data set: Nc1ncnc2c1ncn2[C@@H]1O[C@H](COP(=O)(O)OP(=O)(O)OP(=O)(O)O)[C@@H](O)[C@H]1O
Nature of the data set: purified protein. Particulars: 129 μM CoA, 10 mM succinate, 50 mM KCl, 10 mM MgCl2, 50 mM Tris-HCl pH 7.4, 30 nM enzyme.

B1: Blastocystis SCS (succinyl-CoA synthetase, SCSα + SCSβ) (Blastocystis sp. ATCC 50177/Nand II) (protein)
chain: LNIHEWQSKQLIQKYGGRAQSGEVAFSPERSRDIAKKLWNQFPGCKFVVKAQVLAGGRGKGHWEHGMQGGVKLAKTPEEVYEIANEMIGHKLITKQTGAKGINCNKVMVCGAVKILKEFYLSILLDRAMGCPVIIATSQGGMGIEEVAQKCPECLFKVPISVKNGPTNEQLVKLAKDLGLEGDLVQDCVDNVKALYQVFDKCDSTMVEINPLGVIETPTDEKVICCLDAKIAFDKDAAFRQKEIFALRDKSREDPRDVRASLADLNYVGLDGDIGCMVNGAGLAMATMDTINYFGGSAANFLDVGGNAKKEQITEALRILNSDKHVKSILINIFGGIMRCDVVAQGIMDAVREMKLDLPLVVRLEGTNVAKGKEILKSSGLNIIPANDLGDAAKKAVASLKH
As usually defined, the Km is the substrate concentration at which the rate is half of its maximum. Broadly, the kcat is the number of substrate molecules converted per active site and unit of time at saturation. For orientation: kcat/Km means the turnover number divided by the Michaelis constant. For the protein B1, the Km came out at 145 ± 47 µM, the kcat stood at 0.0139 s⁻¹ and the specificity constant (kcat/Km) was determined as 96 M⁻¹ s⁻¹.
